Laboratory results as given in PMC5550493, “The Conserved Lysine-265 Allosterically Modulates Nucleotide- and Actin-binding Site Coupling in Myosin-2” (Scientific Reports, 2017).

Columns and labels:
[1] = target: F-actin (rabbit skeletal muscle actin) (rabbit, UniProt P68135 1-377); experiment: cell-based or functional assay
[2] = target: Pyrene-labelled F-actin (rabbit skeletal muscle actin) (rabbit, UniProt P68135 1-377, pyrene label); experiment: other fluorescence titration; stopped-flow, pyrene-actin fluorescence; k+A from the slope of observed rate constants against actin concentration; k-A by chasing pyrene-actin from the complex with a large excess of unlabelled F-actin; KA calculated as k-A/k+A; 25 mM MOPS, 100 mM KCl, 5 mM MgCl2, 1 mM DTT, pH 7.0, 20 °C; conditions: both partners purified

Row | k cat/K app, calculated from k cat and K app of the actin-activated steady-state ATPase [1] | Kd [2] | koff [2] | kon [2] | Binder
1 | 30000 M⁻¹ s⁻¹ | 3.6 nM | 0.0049 s⁻¹ | 1.37e+06 M⁻¹ s⁻¹ | Dd myosin-2 M765-2R wild type (Dd myosin-2 motor domain fused to two Dd α-actinin repeats) (other, Dictyostelium discoideum myosin-2 heavy chain (mhcA gene), first 765 residues (motor domain); Dictyostelium discoideum α-actinin, codon 264 to 505 (two α-actinin repeats, artificial lever arm); Expression vector based on pDXA-3H; also called WT; M765-2R WT; source: Dictyostelium discoideum AX3-Orf+ cells, purified (Ni-NTA)) MNPIHDRTSDYHKYLKVKQGDSDLFKLTVSDKRYIWYNPDPKERDSYECGEIVSETSDSFTFKTVDGQDRQVKKDDANQRNPIKFDGVEDMSELSYLNEPAVFHNLRVRYNQDLIYTYSGLFLVAVNPFKRIPIYTQEMVDIFKGRRRNEVAPHIFAISDVAYRSMLDDRQNQSLLITGESGAGKTENTKKVIQYLASVAGRNQANGSGVLEQQILQANPILEAFGNAKTTRNNNSSRFGKFIEIQFNSAGFISGASIQSYLLEKSRVVFQSETERNYHIFYQLLAGATAEEKKALHLAGPESFNYLNQSGCVDIKGVSDSEEFKITRQAMDIVGFSQEEQMSIFKIIAGILHLGNIKFEKGAGEGAVLKDKTALNAASTVFGVNPSVLEKALMEPRILAGRDLVAQHLNVEKSSSSRDALVKALYGRLFLWLVKKINNVLCQERKAYFIGVLDISGFEIFKVNSFEQLCINYTNEKLQQFFNHHMFKLEQEEYLKEKINWTFIDFGLDSQATIDLIDGRQPPGILALLDEQSVFPNATDNTLITKLHSHFSKKNAKYEEPRFSKTEFGVTHYAGQVMYEIQDWLEKNKDPLQQDLELCFKDSSDNVVTKLFNDPNIASRAKKGANFITVAAQYKEQLASLMATLETTNPHFVRCIIPNNKQLPAKLEDKVVLDQLRCNGVLEGIRITRKGFPNRIIYADFVKRYYLLAPNVPRDAEDSQKATDAVLKHLNIDPEQYRFGITKIFFRAGQLARIEEAREQRISEILEQTKSDYLKRANELVQWINDKQASLESRDFGDSIESVQSFMNAHKEYKKTEKPPKGQEVSELEAIYNSLQTKLRLIKREPFVAPAGLTPNEIDSTWSALEKAEQEHAEALRIELKRQKKIAVLLQKYNRILKKLENWATTKSVYLGSNETGDSITAVQAKLKNLEAFDGECQSLEGQSNSDLLSILAQLTELNYNGVPELTERKDTFFAQQWTGVKSSAETYKNTLLAELERLQKIEDSLV
2 | 15000 M⁻¹ s⁻¹ | 10.1 nM | 0.0113 s⁻¹ | 1.11e+06 M⁻¹ s⁻¹ | Dd myosin-2 M765-2R K265E (other, Dictyostelium discoideum myosin-2 heavy chain (mhcA gene), first 765 residues (motor domain), with K265E; Dictyostelium discoideum α-actinin, codon 264 to 505 (two α-actinin repeats, artificial lever arm); Point mutant of the fusion construct m1; source: Dictyostelium discoideum AX3-Orf+ cells, purified (Ni-NTA)) MNPIHDRTSDYHKYLKVKQGDSDLFKLTVSDKRYIWYNPDPKERDSYECGEIVSETSDSFTFKTVDGQDRQVKKDDANQRNPIKFDGVEDMSELSYLNEPAVFHNLRVRYNQDLIYTYSGLFLVAVNPFKRIPIYTQEMVDIFKGRRRNEVAPHIFAISDVAYRSMLDDRQNQSLLITGESGAGKTENTKKVIQYLASVAGRNQANGSGVLEQQILQANPILEAFGNAKTTRNNNSSRFGKFIEIQFNSAGFISGASIQSYLLEESRVVFQSETERNYHIFYQLLAGATAEEKKALHLAGPESFNYLNQSGCVDIKGVSDSEEFKITRQAMDIVGFSQEEQMSIFKIIAGILHLGNIKFEKGAGEGAVLKDKTALNAASTVFGVNPSVLEKALMEPRILAGRDLVAQHLNVEKSSSSRDALVKALYGRLFLWLVKKINNVLCQERKAYFIGVLDISGFEIFKVNSFEQLCINYTNEKLQQFFNHHMFKLEQEEYLKEKINWTFIDFGLDSQATIDLIDGRQPPGILALLDEQSVFPNATDNTLITKLHSHFSKKNAKYEEPRFSKTEFGVTHYAGQVMYEIQDWLEKNKDPLQQDLELCFKDSSDNVVTKLFNDPNIASRAKKGANFITVAAQYKEQLASLMATLETTNPHFVRCIIPNNKQLPAKLEDKVVLDQLRCNGVLEGIRITRKGFPNRIIYADFVKRYYLLAPNVPRDAEDSQKATDAVLKHLNIDPEQYRFGITKIFFRAGQLARIEEAREQRISEILEQTKSDYLKRANELVQWINDKQASLESRDFGDSIESVQSFMNAHKEYKKTEKPPKGQEVSELEAIYNSLQTKLRLIKREPFVAPAGLTPNEIDSTWSALEKAEQEHAEALRIELKRQKKIAVLLQKYNRILKKLENWATTKSVYLGSNETGDSITAVQAKLKNLEAFDGECQSLEGQSNSDLLSILAQLTELNYNGVPELTERKDTFFAQQWTGVKSSAETYKNTLLAELERLQKIEDSLV
3 | 19000 M⁻¹ s⁻¹ | 7.6 nM | 0.0078 s⁻¹ | 1.02e+06 M⁻¹ s⁻¹ | Dd myosin-2 M765-2R K265Q (other, Dictyostelium discoideum myosin-2 heavy chain (mhcA gene), first 765 residues (motor domain), with K265Q; Dictyostelium discoideum α-actinin, codon 264 to 505 (two α-actinin repeats, artificial lever arm); Point mutant of the fusion construct m1; source: Dictyostelium discoideum AX3-Orf+ cells, purified (Ni-NTA)) MNPIHDRTSDYHKYLKVKQGDSDLFKLTVSDKRYIWYNPDPKERDSYECGEIVSETSDSFTFKTVDGQDRQVKKDDANQRNPIKFDGVEDMSELSYLNEPAVFHNLRVRYNQDLIYTYSGLFLVAVNPFKRIPIYTQEMVDIFKGRRRNEVAPHIFAISDVAYRSMLDDRQNQSLLITGESGAGKTENTKKVIQYLASVAGRNQANGSGVLEQQILQANPILEAFGNAKTTRNNNSSRFGKFIEIQFNSAGFISGASIQSYLLEQSRVVFQSETERNYHIFYQLLAGATAEEKKALHLAGPESFNYLNQSGCVDIKGVSDSEEFKITRQAMDIVGFSQEEQMSIFKIIAGILHLGNIKFEKGAGEGAVLKDKTALNAASTVFGVNPSVLEKALMEPRILAGRDLVAQHLNVEKSSSSRDALVKALYGRLFLWLVKKINNVLCQERKAYFIGVLDISGFEIFKVNSFEQLCINYTNEKLQQFFNHHMFKLEQEEYLKEKINWTFIDFGLDSQATIDLIDGRQPPGILALLDEQSVFPNATDNTLITKLHSHFSKKNAKYEEPRFSKTEFGVTHYAGQVMYEIQDWLEKNKDPLQQDLELCFKDSSDNVVTKLFNDPNIASRAKKGANFITVAAQYKEQLASLMATLETTNPHFVRCIIPNNKQLPAKLEDKVVLDQLRCNGVLEGIRITRKGFPNRIIYADFVKRYYLLAPNVPRDAEDSQKATDAVLKHLNIDPEQYRFGITKIFFRAGQLARIEEAREQRISEILEQTKSDYLKRANELVQWINDKQASLESRDFGDSIESVQSFMNAHKEYKKTEKPPKGQEVSELEAIYNSLQTKLRLIKREPFVAPAGLTPNEIDSTWSALEKAEQEHAEALRIELKRQKKIAVLLQKYNRILKKLENWATTKSVYLGSNETGDSITAVQAKLKNLEAFDGECQSLEGQSNSDLLSILAQLTELNYNGVPELTERKDTFFAQQWTGVKSSAETYKNTLLAELERLQKIEDSLV
4 | 20000 M⁻¹ s⁻¹ | 7.5 nM | 0.0104 s⁻¹ | 1.38e+06 M⁻¹ s⁻¹ | Dd myosin-2 M765-2R K265A (other, Dictyostelium discoideum myosin-2 heavy chain (mhcA gene), first 765 residues (motor domain), with K265A; Dictyostelium discoideum α-actinin, codon 264 to 505 (two α-actinin repeats, artificial lever arm); Point mutant of the fusion construct m1; source: Dictyostelium discoideum AX3-Orf+ cells, purified (Ni-NTA)) MNPIHDRTSDYHKYLKVKQGDSDLFKLTVSDKRYIWYNPDPKERDSYECGEIVSETSDSFTFKTVDGQDRQVKKDDANQRNPIKFDGVEDMSELSYLNEPAVFHNLRVRYNQDLIYTYSGLFLVAVNPFKRIPIYTQEMVDIFKGRRRNEVAPHIFAISDVAYRSMLDDRQNQSLLITGESGAGKTENTKKVIQYLASVAGRNQANGSGVLEQQILQANPILEAFGNAKTTRNNNSSRFGKFIEIQFNSAGFISGASIQSYLLEASRVVFQSETERNYHIFYQLLAGATAEEKKALHLAGPESFNYLNQSGCVDIKGVSDSEEFKITRQAMDIVGFSQEEQMSIFKIIAGILHLGNIKFEKGAGEGAVLKDKTALNAASTVFGVNPSVLEKALMEPRILAGRDLVAQHLNVEKSSSSRDALVKALYGRLFLWLVKKINNVLCQERKAYFIGVLDISGFEIFKVNSFEQLCINYTNEKLQQFFNHHMFKLEQEEYLKEKINWTFIDFGLDSQATIDLIDGRQPPGILALLDEQSVFPNATDNTLITKLHSHFSKKNAKYEEPRFSKTEFGVTHYAGQVMYEIQDWLEKNKDPLQQDLELCFKDSSDNVVTKLFNDPNIASRAKKGANFITVAAQYKEQLASLMATLETTNPHFVRCIIPNNKQLPAKLEDKVVLDQLRCNGVLEGIRITRKGFPNRIIYADFVKRYYLLAPNVPRDAEDSQKATDAVLKHLNIDPEQYRFGITKIFFRAGQLARIEEAREQRISEILEQTKSDYLKRANELVQWINDKQASLESRDFGDSIESVQSFMNAHKEYKKTEKPPKGQEVSELEAIYNSLQTKLRLIKREPFVAPAGLTPNEIDSTWSALEKAEQEHAEALRIELKRQKKIAVLLQKYNRILKKLENWATTKSVYLGSNETGDSITAVQAKLKNLEAFDGECQSLEGQSNSDLLSILAQLTELNYNGVPELTERKDTFFAQQWTGVKSSAETYKNTLLAELERLQKIEDSLV
